T1: GST-TR4 (Homo sapiens, UniProt P49116)
T1 construct: which used the full length of TR4 containing AF-1; made in house
T1 sequence (P49116 1-615 isoform P49116-2 N175S/W419R/A428G/K503N/L504W/A613V): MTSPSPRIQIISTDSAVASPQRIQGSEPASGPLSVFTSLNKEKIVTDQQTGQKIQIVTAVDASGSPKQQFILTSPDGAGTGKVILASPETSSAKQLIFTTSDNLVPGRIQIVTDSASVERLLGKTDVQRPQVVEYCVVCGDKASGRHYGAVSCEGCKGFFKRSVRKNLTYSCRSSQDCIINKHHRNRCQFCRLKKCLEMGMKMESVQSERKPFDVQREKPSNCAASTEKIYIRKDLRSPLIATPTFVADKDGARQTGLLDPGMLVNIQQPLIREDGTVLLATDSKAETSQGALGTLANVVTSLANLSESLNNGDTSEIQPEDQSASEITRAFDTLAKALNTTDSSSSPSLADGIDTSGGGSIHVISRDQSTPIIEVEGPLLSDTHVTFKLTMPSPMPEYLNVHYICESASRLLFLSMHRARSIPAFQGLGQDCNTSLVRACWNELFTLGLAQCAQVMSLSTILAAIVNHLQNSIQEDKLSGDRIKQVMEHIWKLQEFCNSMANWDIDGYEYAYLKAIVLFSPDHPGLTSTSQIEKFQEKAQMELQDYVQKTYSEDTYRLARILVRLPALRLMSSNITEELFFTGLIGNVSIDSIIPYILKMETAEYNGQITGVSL

B1: TR4: human testicular orphan nuclear receptor 4, SEQ ID NO:16; expressed from plasmid or in vitro translated (protein)
chain: T1 sequence (P49116 1-615 isoform P49116-2 N175S/W419R/A428G/K503N/L504W/A613V)
B2: TR2: human testicular orphan nuclear receptor 2, 603 amino acids (protein, UniProt P13056 1-603, looked up)
chain: MATIEEIAHQIIEQQMGEIVTEQQTGQKIQIVTALDHNTQGKQFILTNHDGSTPSKVILARQDSTPGKVFLTTPDAAGVNQLFFTTPDLSAQHLQLLTDNSPDQGPNKVFDLCVVCGDKASGRHYGAVTCEGCKGFFKRSIRKNLVYSCRGSKDCIINKHHRNRCQYCRLQRCIAFGMKQDSVQCERKPIEVSREKSSNCAASTEKIYIRKDLRSPLTATPTFVTDSESTRSTGLLDSGMFMNIHPSGVKTESAVLMTSDKAESCQGDLSTLANVVTSLANLGKTKDLSQNSNEMSMIESLSNDDTSLCEFQEMQTNGDVSRAFDTLAKALNPGESTACQSSVAGMEGSVHLITGDSSINYTEKEGPLLSDSHVAFRLTMPSPMPEYLNVHYIGESASRLLFLSMHWALSIPSFQALGQENSISLVKAYWNELFTLGLAQCWQVMNVATILATFVNCLHNSLQQDKMSTERRKLLMEHIFKLQEFCNSMVKLCIDGYEYAYLKAIVLFSPDHPSLENMEQIEKFQEKAYVEFQDYITKTYPDDTYRLSRLLLRLPALRLMNATITEELFFKGLIGNIRIDSVIPHILKMEPADYNSQIIGHSI
modifications: full-length
notes: human testicular orphan nuclear receptor 2, 603 amino acids

Columns and labels:
GST-TR4 = target: T1, GST-TR4; experiment: GST-TR4 pull-down assay; type: binding; conditions: for Interaction with GST-TR4 fusion protein: [35S]-methionine labeled proteins, absence of E2, Example 3; for Interaction with GST-TR4 in pull-down assay: in vitro translated 35S methionine-labeled proteins, Example 1
Experimental: GST-TR4 fusion protein and GST control protein were purified as instructed by the manufacturer (Pharmacia). […] of in vitro translated 35S methionine-labeled proteins were used to perform a pull-down assay as described previously. Cacailles, et al., EMBO 14, 3741-3751 (1995).
Using a GAL4-TR4 fusion protein as bait, the yeast two-hybrid system was used to isolate several potential TR4 associated proteins. […] A GST-TR4 fusion protein pull-down assay was performed to further confirm the result. GST-TR4 fusion protein and GST control protein were purified as instructed by the manufacturer (Pharmacia).
A GST pull-down assay was performed according to the methods described previously (Lee, Y. et al. (1999) Proc. Natl. Acad Sci. USA. 96(26) 14724-9).
Briefly, the GST fusion protein and GST control protein were expressed in an Escherichia coli strain BL21 (DE3) pLys bacterial culture and recovered on glutathione-Sepharose-4B beads. Equal amounts of GST fusion protein bound to glutathione-Sepharose-4B beads were incubated for 2 h at 4° C. with 5 μl of in vitro translated [^35S]methionine-labeled protein in a total volume of 100 µl of incubation buffer (20 mM HEPES/pH 7.9, 150 mM KCl, 5 mM MgCl2, 0.5 mM EDTA, 0.5 mM dithiothreitol, 0.1% Nonidet P-40, 1 mg/ml bovine serum albumin, and 10% glycerol), and protease inhibitor mixture (1 mM phenylmethylsulfonyl fluoride, 1 μg/ml aprotinin, leupeptin, and pepstatin). The beads were then washed three times with wash buffer (20 mM Tris/pH 8.0, 100 mM NaCl, 1 mM EDTA, and 0.5% Nonidet P-40), boiled in 2×SDS sample buffer, loaded onto SDS-polyacrylamide gels, and visualized by autoradiography.

ERβ = target: T2, ERβ (Mus musculus, UniProt O08537); experiment: ERβ-mediated transactivation (ERE reporter); type: cell-based
T2 construct: expressed in transfected cells; host or cells: HEK293 (TR2 experiment), H1299 (TR4 experiment)
T2 sequence (O08537 whole entry): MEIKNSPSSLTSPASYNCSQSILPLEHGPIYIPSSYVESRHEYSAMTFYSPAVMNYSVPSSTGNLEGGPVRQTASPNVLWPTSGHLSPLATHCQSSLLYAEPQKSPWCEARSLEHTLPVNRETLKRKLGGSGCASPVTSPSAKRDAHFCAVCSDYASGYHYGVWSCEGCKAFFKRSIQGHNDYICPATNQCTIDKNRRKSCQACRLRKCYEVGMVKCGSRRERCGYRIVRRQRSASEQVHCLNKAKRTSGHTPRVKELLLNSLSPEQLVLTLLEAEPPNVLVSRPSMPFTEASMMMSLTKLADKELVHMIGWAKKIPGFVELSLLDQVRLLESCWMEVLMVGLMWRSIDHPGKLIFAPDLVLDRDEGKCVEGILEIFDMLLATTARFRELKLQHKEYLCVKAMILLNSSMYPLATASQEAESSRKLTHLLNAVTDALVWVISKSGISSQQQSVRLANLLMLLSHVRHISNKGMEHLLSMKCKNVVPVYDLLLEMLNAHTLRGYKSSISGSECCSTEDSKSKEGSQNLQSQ
Experimental: (A) TR2 repression of ER-mediated ERE-tk-CAT reporter genes in PC-3, H1299, MCF7, and T47D cells. Cells in 60-mm dishes were co-transfected with […] of ERE-CAT, pSG5-ER, and/or pCMV-TR2 by calcium phosphate precipitation methods. 1 mg of b-galactosidase expression plasmid, pCMV-b-gal, was used as an internal control for transfection efficiency. CAT activity is presented relative to the response to ethanol, which is set as one. (B) MCF7-pBIG and MCF7-TR2 cells were stably transfected with doxycycline-inducible pBIG2i and pBIG2I-FLAG-TR2 plasmids, respectively. Cells were transfected with […] of pCMV-b-gal and, after 16 hr, were treated with or without […] doxycycline. […] FLAG-TR2 induction was monitored by Western blotting using anti-FLAG antibody (M2), shown in the upper panel. […] Relative mRNA expression amounts were normalized by 28S expression and quantitated by ImageQuant V.1.2 (Molecular Dynamics). […] Luciferase activity was analyzed following manufacturer's instructions (Promega). […]
H1299 and MCF-7 cells were maintained in Dulbecco's modified eagle medium (DMEM) containing penicillin (25 units/ml), streptomycin (25 μg/ml), and 10% fetal calf serum (FBS). […] The CAT activity was visualized by Phosphorlmager (Molecular Dynamics) and quantitated by IMAGEQUANT software (Molecular Dynamics). The luciferase activity was determined by the Luminometer (Turner Designs).

Molecule	Interaction with GST-TR4 fusion protein (GST-TR4)	Interaction with GST-TR4 in pull-down assay (GST-TR4)	E2-induced ERE-CAT activity, ERβ (ERβ; H1299 cells, 10 nM E2, increasing TR4 expression plasmid)	ERβ-mediated transcription (ERE-Luc) (ERβ; HEK293 cells, TR2)
AR: androgen receptor, SEQ ID NO:31	binds well	physically interact	–	–
RXR: retinoid X receptor, another member of the steroid receptor superfamily	unable to interact	no interaction	–	–
B1	–	–	suppression of the E2-induced CAT activity in a dose-dependent manner	–
B2	–	physically interact	–	suppress

From US20030235860A1, “Interactions between AR, ER, TR2, and TR4” (priority 1999, published 2003)
